Test results from paper PMC2440032 (2008).

Target: T1, odorranalectin (Odorrana grahami)
T1 chain: YASPKCFRYPNGVLACT
Test: SPR; glycans on fetuin (lectin-type recognition of a glycoprotein); calcium not required

B1: fetuin (protein)
chain: IPLDPVAGYKEPACDDPDTEQAALAAVDYINKHLPRGYKHTLNQIDSVKVWPRRPTGEVYDIEIDTLETTCHVLDPTPLANCSVRQQTQHAVEGDCDIHVLKQDGQFSVLFTKCDSSPDSAEDVRKLCPDCPLLAPLNDSRVVHAVEVALATFNAESNGSYLQLVEISRAQFVPLPVSVSVEFAVAATDCIAKEVVDPTKCNLLAEKQYGFCKGSVIQKALGGEDVRVTCTLFQTQPVIPQPQPDGAEAEAPSAVPDAAGPTPSAAGPPVASVVVGPSVVAVPLPLHRAHYDLRHTFSGVASVESSSGEAFHVGKTPIVGQPSIPGGPVRLCPGRIRYFKI
- Kd: 0.211 µM
